Measured values published in patent publication US20160075792A1 (Kyowa Kirin, published 2016).

Biological target: T1, human CD40 (human, UniProt P25942 21-277)
T1 construct: Endogenous CD40 on Ramos cells (ATCC CRL-1596), 'which expresses human CD40'
Test: flow cytometry (FACS, MFI) on Ramos cells expressing human CD40, R-PE anti-human antibody detection
Protocol: The Ramos cell line was suspended in staining buffer (SB) of PBS containing 0.1% NaN₃, 2 mM EDTA, and 2% FCS at a density of […]. The cell suspension (100 μL/well) was dispensed into a 96-well round-bottom plate (manufactured by Becton Dickinson). The purified antibody (50 μL) was added thereto, followed by incubation at ice temperature for 30 minutes. As negative control, an anti-human IgG2 antibody against 2,4-dinitrophenol was used and the purified antibodies (50 μL) were similarly added, followed by incubation at ice temperature for 15 minutes. After the cells were washed with SB, 50 μL of 250-fold diluted R-PE fluorescence-labeled anti-human antibodies (manufactured by Southern Biotechnology) was added thereto, followed by incubation at ice temperature for 15 minutes. The cells were washed twice with SB and suspended in 300 to 500 μL of FACS buffer. And the fluorescence intensity (MFI) of individual cells was measured by FACS (FACScalibur, manufactured by Becton Dickinson).

T1 sequence (P25942 21-277 limits assumed): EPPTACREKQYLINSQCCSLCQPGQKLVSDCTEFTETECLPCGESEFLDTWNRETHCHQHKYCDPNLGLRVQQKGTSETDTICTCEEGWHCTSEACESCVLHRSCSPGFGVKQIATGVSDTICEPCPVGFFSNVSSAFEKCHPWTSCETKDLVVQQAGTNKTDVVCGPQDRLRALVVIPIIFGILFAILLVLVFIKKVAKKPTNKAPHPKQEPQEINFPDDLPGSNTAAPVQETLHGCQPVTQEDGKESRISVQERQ

Row | Binder | binding result
1 | IgG2-AAS(341) antibody (antibody, kappa light chain; Signal peptides (1-20 of each chain, estimated by SignalP) are left out; Expressed transiently in 293 cells and purified on protein A) heavy: QVQLQQSGPGLVKPSQTLSLTCAISGDSVSSNSATWNWIRQSPSRDLEWLGRTYYRSKWYRDYVGSVKSRIIINPDTSNNQFSLQLNSVTPEDTAIYYCTRAQWLGGDYPYYYSMDVWGQGTTVTVSSASTKGPSVFPLAPCSRSTSESTAALGCLVKDYFPEPVTVSWNSGALTSGVHTFPAVLQSSGLYSLSSVVTVPSSNFGTQTYTCNVDHKPSNTKVDKTVERKCCVECPPCPAPPAAAPSVFLFPPKPKDTLMISRTPEVTCVVVDVSHEDPEVQFNWYVDGVEVHNAKTKPREEQFNSTFRVVSVLTVVHQDWLNGKEYKCKVSNKGLPASIEKTISKTKGQPREPQVYTLPPSREEMTKNQVSLTCLVKGFYPSDIAVEWESNGQPENNYKTTPPMLDSDGSFFLYSKLTVDKSRWQQGNVFSCSVMHEALHNHYTQKSLSLSPGK light: not shown | binds
2 | IgG2-S(341) antibody (antibody) heavy: QVQLQQSGPGLVKPSQTLSLTCAISGDSVSSNSATWNWIRQSPSRDLEWLGRTYYRSKWYRDYVGSVKSRIIINPDTSNNQFSLQLNSVTPEDTAIYYCTRAQWLGGDYPYYYSMDVWGQGTTVTVSSASTKGPSVFPLAPCSRSTSESTAALGCLVKDYFPEPVTVSWNSGALTSGVHTFPAVLQSSGLYSLSSVVTVPSSNFGTQTYTCNVDHKPSNTKVDKTVERKCCVECPPCPAPPVAGPSVFLFPPKPKDTLMISRTPEVTCVVVDVSHEDPEVQFNWYVDGVEVHNAKTKPREEQFNSTFRVVSVLTVVHQDWLNGKEYKCKVSNKGLPASIEKTISKTKGQPREPQVYTLPPSREEMTKNQVSLTCLVKGFYPSDIAVEWESNGQPENNYKTTPPMLDSDGSFFLYSKLTVDKSRWQQGNVFSCSVMHEALHNHYTQKSLSLSPGK light: not shown | binds
